{
  "source": "paper PMC8445963",
  "target": "MYC-tagged Exo70 wild-type (in MTLn3 cells) (UniProt Q9UPT5)",
  "sequence (Q9UPT5 whole entry)": "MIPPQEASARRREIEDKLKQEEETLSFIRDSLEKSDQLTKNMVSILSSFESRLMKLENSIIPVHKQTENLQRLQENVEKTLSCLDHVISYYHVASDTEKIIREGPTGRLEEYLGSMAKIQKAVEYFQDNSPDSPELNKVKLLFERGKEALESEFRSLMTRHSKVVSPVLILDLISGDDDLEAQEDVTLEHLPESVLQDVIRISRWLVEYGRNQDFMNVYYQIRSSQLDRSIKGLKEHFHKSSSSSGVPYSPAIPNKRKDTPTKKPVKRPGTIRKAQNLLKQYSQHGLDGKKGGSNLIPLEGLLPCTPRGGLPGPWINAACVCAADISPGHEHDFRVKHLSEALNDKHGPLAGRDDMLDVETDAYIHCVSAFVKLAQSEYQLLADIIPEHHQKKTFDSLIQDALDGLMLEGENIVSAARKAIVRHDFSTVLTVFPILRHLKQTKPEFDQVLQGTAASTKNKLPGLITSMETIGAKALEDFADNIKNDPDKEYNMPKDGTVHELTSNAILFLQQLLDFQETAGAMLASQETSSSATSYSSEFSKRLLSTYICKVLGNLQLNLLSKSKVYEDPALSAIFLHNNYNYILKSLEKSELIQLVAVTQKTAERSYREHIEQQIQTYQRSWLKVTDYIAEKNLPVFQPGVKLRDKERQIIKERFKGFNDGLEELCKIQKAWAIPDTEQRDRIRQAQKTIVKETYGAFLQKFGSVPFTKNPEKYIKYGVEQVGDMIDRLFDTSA",
  "experiment": "proximity ligation assay",
  "settings": "N = 3 experiments",
  "data": [
    {"substance": "Flag-tagged TC10 wild-type (in MTLn3 cells) P43L; E45V; Y46H; T49A; Y54C", "values": [
      {"measurement": "other: % invadopodia with PLA spots at core (% invadopodia)", "setting": "category: core, parent: est. 23, read off a plot", "value": 16},
      {"measurement": "other: % invadopodia with no PLA spots (none) (% invadopodia)", "setting": "category: none, parent: est. 33, read off a plot", "value": 55},
      {"measurement": "other: % invadopodia with PLA spots at side (% invadopodia)", "setting": "category: side, parent: est. 44, read off a plot", "value": 29}
    ]}
  ]
}
